We go through 5 molecules from paper PMC8024396, “Biochemical and structural characterization of the BioZ enzyme engaged in bacterial biotin synthesis pathway” (Nature Communications, 2021).

Data set [1] concerns the target T1, AtBioZ (FabH2, beta-ketoacyl-ACP synthase III) (Agrobacterium fabrum, UniProt Q7CTU0, C115A).
T1 construct: gene bioZ; purified BioZ(C115A)
Kind of data set: ITC (MicroCal PEAQ-ITC, […] °C), N = […]. The format is binding.

Data set [2] concerns the molecule itself. Kind of data set: SEC; gel filtration of purified AtBioZ on Superdex 200 Increase 10/300; GF buffer (25 mM Tris-HCl pH 8.0, 100 mM NaCl, 2 mM DTT).
Data set [3] has as its target BioZ(C115A) mutant enzyme of Agrobacterium tumefaciens (Agrobacterium tumefaciens), A0AA44. Kind of data set: ITC; MicroCal PEAQ-ITC, 25 °C; 50 μM BioZ(C115A) in the cell, 750 μM substrate in the syringe; 20 mM Tris pH 8.0, 150 mM NaCl; one binding-site model; three independent measurements. Particulars: remark: other sources report otherwise.

`CC(C)(COP(=O)(O)OP(=O)(O)OC[C@H]1O[C@@H](n2cnc3c(N)ncnc32)[C@H](O)[C@@H]1OP(=O)(O)O)[C@@H](O)C(=O)NCCC(=O)NCCSC(=O)CCCC(=O)O` [glutaryl-CoA]: in data set [1], the Kd worked out at 2.64 ± 0.23 µM.

B1: Agrobacterium tumefaciens BioZ (enzyme, UniProt A0AA44F6N6 1-328, looked up)
chain: MQTRSSRMAGFGHAVPARCVRNAEIETRLGLEAGWIERRTGIRTRYWAQEGETLSGLAEKAGRMALENARIGAEDIALTLLATSTPDHLLPPSAPLLAHRLGLTQSGAIDLAGACSGFLYALTLADGFVRTHGRAVLVVAANILSRRINPAERATAVLFADAAGAVVLVPCRDAQRGLLSADLVSDGSGYDLIQIAAGGSSQPFSNDTEAEDTLMTMRDGREVFSRAVATMTQTSQRALQRAEMTATDIQRFLPHQANARMFDAVCGNIGIDRQKTVRTVETFGNSSAATIPLSLSVSNAERPITEGETLLLTAAGAGMTGGAVVYRG
notes: BioZ (FabH2), atypical beta-ketoacyl-ACP synthase III of Agrobacterium tumefaciens; bioZ gene cloned into pET28a; apparent mass ~36 kDa; 654 protein residues in the two protomers of PDB 6KUE; also called AtBioZ; FabH2; source: E. coli BL21 with pET28::atbioZ, purified (Ni-NTA, TEV cleavage, Superdex 200 Increase SEC); not shown: His6, N-terminal, cleaved
For the molecule B1, in data set [2], the “stoichiometry N” value came to 2.

B2: glutaryl-ACP, P0A6A8 1-78 (natural protein)
chain: MSTIEERVKKIIGEQLGVKQEEVTNNASFVEDLGADSLDTVELVMALEEEFDTEIPDEEAEKITTVQAAIDYINGHQA
modifications: here or on the partner: glutaryl thioester on the phosphopantetheine (Ppan) of Serine 36
On to B2, for which, in data set [3], the dissociation constant (Kd) stood at 6.17 µM and the stoichiometry N amounted to 0.978.

B3: E. coli holo-ACP, P0A6A8 1-78 (natural protein)
chain: B2 chain
modifications: here or on the partner: phosphopantetheine (Ppan) on Serine 36 (holo-ACP)
Turning to B3, in data set [3], the dissociation constant Kd was 330 µM and the stoichiometry N amounted to 1.

B4: malonyl-ACP, P0A6A8 1-78 (natural protein)
chain: B2 chain
modifications: here or on the partner: malonyl thioester on the phosphopantetheine (Ppan) of Serine 36
With B4, in data set [3], the Kd was 24.1 µM and the stoichiometry N came to 0.996.
